# B1: ITAC-B1: anti-human neuropilin-2 murine monoclonal antibody, VH SEQ ID No. 2, VL SEQ ID No. 4, produced by hybridoma CNCM 1-4054 (antibody, listed as Mus musculus, V domains shown)
# VH: EVKLQESGAELVKPGASVKLSCTVSGFNIKDTYIHWVIQRPEQGLEWLGRIDPANGNTKYDPKFQGKATITADTSSNTAYLQLSSLTSEDTAVYYCARWAVVGDYWGQGTTLTVSS
# VL: YCDHPLYKFLHVSAGDRVTITCKASQSVSDDVAWYQQKPGQSPKLLIYSASNRYTGVPDRFTGSGYGTDFTFTISTVQPEDLAVYFCQQDYSSPTFGSGTKLELK
# Legend:
# [1] = system: Colo320 human tumour cells; assay: Tumour colony formation in semi-solid agar medium; format: cell-based
# Procedure: In order to determine whether the ITAC-B1 antibody has a neutralizing activity on the formation of tumour colonies in vitro, tests for tumour colony formation in vitro in a semi-solid agar medium containing agar were carried out. The principle of this test is based on bringing Colo320 human tumour cells (which express NRP-2 at their membrane surface and, furthermore, naturally secrete VEGF into the culture medium) into contact with the ITAC-B1 antibody. 4000 Colo320 cells are seeded into each well of a 24-well plate, in a semi-solid medium containing agar, and in the presence of 10 μg/ml of anti-NRP-2 antibody ITAC-B1. By way of comparison, the same test is carried out in the presence of cytotoxic agents with a proven action, i.e. 5-fluorouracil (5-FU), used at a rate of 50 μg/ml, or of Avastin® (bevacizumab: humanized monoclonal antibodies directed against VEGF), used at a rate of 50 μg/ml, or in the presence of a control isotype antibody (mouse IgG1 monoclonal antibody (BZ1)), used at a rate of 10 μg/ml.
# At 10 days post-seeding, the colonies were counted under an optical microscope.
# Since neuropilin-2 is a coreceptor for VEGF, it was verified whether the activity of ITAC-B1 was dependent on an interaction between NRP-2 and the VEGF produced by the Colo320 cells. With this aim, the tests for Colo320-cell colony formation were carried out under the conditions described above, and in the presence of ITAC-B1 antibody (10 μg/ml), of bevacizumab (50 μg/ml) or of control antibody (10 μg/ml), used separately or in combination.
# The results are given in FIG. 10: the y-axis represents the number of colonies formed; on the x-axis, the antibodies present in the culture medium are indicated by a “+”.
# [2] = system: Colo320siRNA-ctrl cells; assay: Annexin V-APC apoptosis test with or without PFTα pretreatment; format: cell-based, human; conditions: 20 μg/ml, 5 h
# Procedure: In order to correlate the induction of apoptosis with p53 expression, the Colo320siRNA-ctrl cells were pretreated for 18 h with a chemical inhibitor of p53, pifithrin-α, at a dose of 27 μM (PFTα, Sigma). After pretreatment, the cells are washed twice with 3 ml of PBS and placed in a 24-well plate, at a rate of 100 000 cells/well in 1 ml of RPMI-10% FCS. Non-pretreated cells are placed under the same conditions. The cells are incubated for 5 h with a control murine isotype antibody (BZ1) or ITAC-B1 at 20 μg/ml and the apoptosis is measured as described above.
# FIG. 14 represents the results of the apoptosis-induction experiments carried out with the Colo320siRNA-ctrl cells pretreated or not pretreated with PFTα. The percentage of cells labelled with Annexin V-APC is indicated on the y-axis, the cell culture conditions are indicated on the x-axis (control consisting of medium, control consisting of medium supplemented with a control isotype antibody -BZ1-, test consisting of medium supplemented with the ITAC-B1 antibody). The results of the tests carried out with cells pretreated with PFTα are represented in light grey, those of the tests carried out with non-pretreated cells are represented in dark grey.
# [3] = target: T1, human neuropilin-2 at the membrane surface (HT29-NRP-2, P815-NRP-2 cells) (Homo sapiens, UniProt O60462); assay: Flow cytometry membrane labelling of cells expressing or not expressing NRP-2; format: binding; conditions: 5 μg/ml antibody, 15 minutes at 4° C.; HT29, HT29-NRP-2, P815, P815-NRP-2 cells
# T1 construct: expressed in transfected cells; host or cells: HT29 (human colorectal cancer) and P815 (murine mastocytoma) cells, G418-selected
# T1 sequence (O60462 21-931): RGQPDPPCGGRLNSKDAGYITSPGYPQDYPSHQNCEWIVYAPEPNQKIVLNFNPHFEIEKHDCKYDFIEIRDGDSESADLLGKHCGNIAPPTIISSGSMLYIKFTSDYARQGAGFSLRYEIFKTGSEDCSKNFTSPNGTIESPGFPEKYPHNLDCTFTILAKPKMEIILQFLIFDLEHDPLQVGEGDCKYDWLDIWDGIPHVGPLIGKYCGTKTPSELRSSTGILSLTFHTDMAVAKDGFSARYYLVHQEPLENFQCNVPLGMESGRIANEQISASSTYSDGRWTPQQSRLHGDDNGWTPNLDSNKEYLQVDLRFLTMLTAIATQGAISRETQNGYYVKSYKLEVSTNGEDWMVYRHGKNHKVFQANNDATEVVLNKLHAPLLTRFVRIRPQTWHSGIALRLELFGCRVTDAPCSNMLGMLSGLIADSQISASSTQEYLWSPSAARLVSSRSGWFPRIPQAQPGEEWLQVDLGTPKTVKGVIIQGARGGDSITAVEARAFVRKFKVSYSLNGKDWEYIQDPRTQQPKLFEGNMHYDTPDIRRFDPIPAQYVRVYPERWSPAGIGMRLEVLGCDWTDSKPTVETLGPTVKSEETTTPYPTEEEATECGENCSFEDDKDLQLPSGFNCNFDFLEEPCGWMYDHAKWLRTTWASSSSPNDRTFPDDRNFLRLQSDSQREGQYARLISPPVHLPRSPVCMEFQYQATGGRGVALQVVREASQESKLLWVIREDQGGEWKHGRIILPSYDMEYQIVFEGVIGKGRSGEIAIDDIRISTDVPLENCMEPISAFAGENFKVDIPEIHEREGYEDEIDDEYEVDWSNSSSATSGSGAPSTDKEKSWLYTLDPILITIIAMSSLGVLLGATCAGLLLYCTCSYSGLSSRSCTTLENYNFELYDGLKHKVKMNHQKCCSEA
# Procedure: The ITAC-B1 clone was deposited, according to the Treaty of Budapest, with the CNCM (Collection Nationale des Microorganismes [French National Microorganism Collection], Institut Pasteur, 25 rue du Docteur Roux, 75724 Paris Cedex 15, France) on 30 Jul. 2008 under the deposit number CNCM 1-4054. In order to characterize the ITAC-B1 and ITAC-B2 monoclonal antibodies, membrane labelling was carried out by flow cytometry by bringing 200 000 HT29, HT29-NRP-2, P815 or P815-NRP-2 cells into contact with 5 μg/ml of ITAC-B1 or of ITAC-B2, for 15 minutes at 4° C. A goat anti-mouse secondary antibody coupled to FITC was then incubated for 15 minutes in the dark, at 4° C., before reading by flow cytometry. The results of the flow cytometry analysis obtained for ITAC-B1 are represented in FIG. 2.
# For each of the panels of FIG. 2, the number of events (number of cells) is indicated on a y-axis, the fluorescence intensity (corresponding to the labelling of the cells with the ITAC-B1 antibody) is represented on the x-axis. Panels A and C (P815+ITAC-B1 and HT29ctrl+ITAC-B1) of FIG. 2 represent the results obtained by flow cytometry with the control cells, while panels B and D (P815-NRP-2+ITAC-B1 and HT29-NRP-2+ITAC-B1) represent the results obtained with cells expressing NRP-2 at their membrane surface. […]
# [4] = system: AKT protein; assay: Western blotting of AKT and its phosphorylation; format: cell-based, human; conditions: 20 μg/ml, 24 hours; HT29-NRP-2 and Colo320^siRNA-ctrl cells; treated versus not treated
# Procedure: The possible effect of the ITAC-B1 antibody on the degree of phosphorylation of a VEGF receptor (VEGFR1), and also on the phosphorylation of the AKT protein which is activated by means of the VEGF receptors, was studied on HT29-NRP-2 and Colo320^siRNA-ctrl tumour cells.
# The cells were cultured for 24 hours in RPMI medium+10% FCS in the presence of the BZ1 control antibody at 20 μg/ml, of ITAC-B1 at 20 μg/ml or of 5-FU at 50 μg/ml. A “nontreated cell” control was added (“medium” control). The cells were then isolated and lysed, and the phosphorylation of VEGFR-1 and of AKT was evaluated by Western blotting on the cell protein extracts, using antibodies directed against nonphosphorylated VEGFR1 (anti-VEGFR1 rabbit polyclonal antibody) or phosphorylated VEGFR1 (anti-phospho-VEGFR1^Tyr1213 rabbit polyclonal antibody, R&D systems) or antibodies directed against nonphosphorylated AKT (rabbit polyclonal antibody C67E7, Cell Signaling technology) or phosphorylated AKT (anti-phospho-AKT^Ser473 rabbit polyclonal antibody DE-9, Cell Signaling technology). The results are represented in FIGS. 16 and 17.
molecule,measurement,setting,value
B1,number of colonies compared with the cells alone control,[1]; ITAC-B1 10 μg/ml alone (FIG. 10),greatly reduced
same,number of colonies,[1]; ITAC-B1 10 μg/ml combined with bevacizumab 50 μg/ml (FIG. 10),identical to that observed when the medium contains the ITAC-B1 antibody alone
same,percentage of cells labelled with Annexin V-APC,[2]; cells pretreated 18 h with PFTα 27 μM,approximately 28%
same,percentage of cells labelled with Annexin V-APC,[2]; non-pretreated cells,41%
same,labelling of cells expressing NRP-2 versus cells not expressing NRP-2,[3],specifically recognize the neuropilin-2 present at the membrane surface
same,amount of AKT and its phosphorylation status,[4],similar

# Reference: patent US8722043B2, “Induction of p53 expression by neutralization of neuropilin-2 for the treatment of cancers” (Diaclone, priority 2008, dated 2014)
